This note sets out measurements from paper doi:10.1101/2020.05.28.119206 (bioRxiv, 2020).

The data set deals with the molecule itself. Description: cryo-EM structure.

B1: elastase-digested native human uromodulin filaments (UMODe) (domain or fragment)
chain: not shown
modifications: N-glycans at N322, N396, N513
Regarding B1, the binding result is “binds”.
